Measurements published in patent US20040052796A1.

Target: p185HER-2 (HER-2/neu, erbB-2 receptor tyrosine kinase) (human) (UniProt P04626)
Test: method not described; binding to cell surface p185HER-2 (statement in the summary)

Kd: 14 nM
Substance: p68HER-2 (herstatin), product of the alternative HER-2 transcript with retained intron 8 (ligand)
